Experimental data taken from patent US12214052 (dated 2025).

Key:
CSP-NPNA5.5-12x-1210 Fab [1] = assay: ITC
CSP-NPNA5.5-12x-1210 Fab [2] = assay: ITC; remark: listed apart in the source
CSP-NPNA5.5-10x-1210 Fab [3] = assay: ITC
CSP-NPNA5.5-8x-1210 Fab [4] = assay: ITC
CSP-NPNA5.5-8x-1210 Fab [5] = assay: ITC; remark: listed apart in the source
CSP-NPNA5.5-10x-1210 Fab [6] = assay: ITC; remark: listed apart in the source
[7] = target: full length PfCSP (NF54 strain) (Plasmodium falciparum (NF54 strain), UniProt P19597 20-384); assay: BLI; avid
Chain of full length PfCSP (NF54 strain) (P19597 20-384): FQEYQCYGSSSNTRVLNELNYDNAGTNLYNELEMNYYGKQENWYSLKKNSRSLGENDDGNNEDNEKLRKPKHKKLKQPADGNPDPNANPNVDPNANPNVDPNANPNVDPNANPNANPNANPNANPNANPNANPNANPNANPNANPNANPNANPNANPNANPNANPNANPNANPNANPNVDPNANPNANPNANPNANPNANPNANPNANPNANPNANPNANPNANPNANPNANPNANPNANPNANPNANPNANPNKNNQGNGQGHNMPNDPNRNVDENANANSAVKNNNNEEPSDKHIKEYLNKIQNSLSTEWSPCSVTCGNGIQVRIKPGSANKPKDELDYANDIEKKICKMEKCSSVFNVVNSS

Row | Binder | Ka (CSP-NPNA5.5-12x-1210 Fab [1]) | Kd (CSP-NPNA5.5-12x-1210 Fab [2]) | Kd (CSP-NPNA5.5-10x-1210 Fab [3]) | Ka (CSP-NPNA5.5-8x-1210 Fab [4]) | Kd (CSP-NPNA5.5-8x-1210 Fab [5]) | Ka (CSP-NPNA5.5-10x-1210 Fab [6]) | Kd [7]
1 | 1210 Fab (Fab, V domains shown) VH: QVQLVESGGGVVQPGRSLRLSCAASGFTFSNYGMHWVRQAPGKGLEWVAVIWYDGSKKYYADSVKGRFTISRDNSKNTLYLQMNSLRAEDTAVYYCARVRDSSDYYGDAFDIWGQGTMVTVSS VL: DIQMTQSPSTLSASVGDRVTITCRASQSISSWLAWYQQKPGKAPKLLIYKASNLESGVPLRFSGSGSGTEFTLTISSLQPDDFATYYCQQYNNYWTFGQGTKVEIK | 5.73e+06 M⁻¹ | 174 nM | 456 nM | 3e+06 M⁻¹ | 333 nM | 2.19e+06 M⁻¹ | 
2 | antibody 1210 (IgG) (antibody, V domains shown) VH: QVQLVESGGGVVQPGRSLRLSCAASGFTFSNYGMHWVRQAPGKGLEWVAVIWYDGSKKYYADSVKGRFTISRDNSKNTLYLQMNSLRAEDTAVYYCARVRDSSDYYGDAFDIWGQGTMVTVSS VL: DIQMTQSPSTLSASVGDRVTITCRASQSISSWLAWYQQKPGKAPKLLIYKASNLESGVPLRFSGSGSGTEFTLTISSLQPDDFATYYCQQYNNYWTFGQGTKVEIK |  |  |  |  |  |  | < 0.001 nM
3 | 1210_YY IgG (antibody, V domains shown) VH: QVQLVESGGGVVQPGRSLRLSCAASGFTFSNYGMHWVRQAPGKGLEWVAVIWYDGSKKYYADSVKGRFTISRDNSKNTLYLQMNSLRAEDTAVYYCARVRDSSYYYGDAFDIWGQGTMVTVSS VL: DIQMTQSPSTLSASVGDRVTITCRASQSISSWLAWYQQKPGKAPKLLIYKASNLESGVPLRFSGSGSGTEFTLTISSLQPDDFATYYCQQYYNYWTFGQGTKVEIK |  |  |  |  |  |  | 0.66 nM
